# Data taken from US11702469B2, “Recombinant EGFL7, EGFL7 antibodies, and uses thereof” (Ohio State Innovation Foundation, priority 2017, dated 2023).
# Legend:
# Type in all cases: cell-based, human
# [1] = tested on: AML cell lines; assay: Apoptosis (AnnexinV/7AAD) in AML cell lines; conditions: 50 μg/ml, forty-eight hours, vs IgG control
# Protocol: FIG. 9. […] Forty-eight hours after IgG control vs. @E7 antibody treatment (50 μg/ml) of AML cell lines apoptosis was evaluated by AnnexinV/7AAD staining. * indicates P<0.05, ** indicates P<0.01.
# For the evaluation of apoptosis, cells were stained with Annexin V and 7-AAD as previously described^16, 21 For the evaluation of cell proliferation, AML cell lines were incubated with BrdU, fixed, permeabilized and stained with APC-conjugated anti-BrdU antibody, according to the instructions of the manufacturer (BD Biosciences) and as previously described^16, 21 The proliferating fraction of the cells (i.e., the BrdU positive cells) was evaluated with flow cytometry (LSRII, BD Biosciences). For cell differentiation analysis, cells were stained with an anti-CD11B antibody (BD Biosciences) and analyzed by flow cytometry.
# [2] = tested on: HES-1; assay: HES-1 / HES1 RT-PCR in primary AML blasts
# Protocol: FIG. 15A-15D. EGFL7 binds and antagonizes NOTCH2 signaling. FIG. 15A. Co-IPs in Kasumi-1 cells using anti-EGFL7 antibody or normal rabbit IgG in Protein G Plus/Protein A agarose beads. Eluate was analyzed by immunoblotting for NOTCH1,-3, and EGFL7. FIG. 15B. Co-IPs with rabbit anti NOTCH1-3 antibody or normal rabbit IgG in Protein G Plus/Protein A agarose beads. FIG. 15C. Immunoblot for cleaved and total NOTCH2 in primary AML blasts stimulated in 0.25 μM rEGFL7. FIG. 15D. RT-PCR on primary AML blasts stimulated with 0.25 μM rEGFL7, *P<0.05.
# FIG. 18A-18B. Parsatuzumab decreases blast growth and activation of NOTCH downstream signaling. FIG. 18A. […]
# FIG. 23A-23E. […] (FIG. 23B) Total RNA was extracted for quantitative real time (qRT-PCR) analysis of HES1 mRNA with β-ACTIN as internal control. *p<0.05 vs un-stimulated control (Unstim). […] Total RNA was extracted for quantitative real time RT-PCR analysis of HES1 mRNA with β-ACTIN as internal control. *p<0.05, ***p<0.001 vs IgG.
# Total RNA was extracted using Trizol reagent (Invitrogen, Carlsbad, Calif., USA). cDNA was synthesized using SuperScript III reagents (Invitrogen) according to the manufacturer's instruction. Quantitative Real-Time RT-PCR was performed using commercially available TaqMan Gene Expression Assay primers and the 7900HT Fast Real-Time PCR System (Applied Biosystems, Foster City, Calif., USA). […]
# [3] = tested on: CD34+ primary AML patient cells; assay: Cell-trace violet (CTV) membrane-labeling retention, quiescence; conditions: vs unstimulated / IgG1 controls
# Description: FIG. 17A-17C. EGFL7 in LSCs. FIG. 17A. qRT-PCR of EGFL7 in LSC-enriched and non-LSC enriched subpopulations of primary AML patient samples normalized to B-ACTIN. Number of quiescent (CTV^MAX) AML cells treated with FIG. 17B. rEGFL7 or control (vs Unstim). FIG. 17C. anti-EGFL7 (Parsatuzumab) antibody or IgG1 control (vs Unstim). *P<0.05.
# A morphologically homogenous and functionally static blast population present in the BM and blood of individual AML patients has now evolved into the current perspective of multiple dynamic and heterogeneous cell subpopulations which includes the bulk blast population and the relatively rare leukemia initiating cells (LICs) also referred to as LSCs. Thus, targeting both LSCs and bulk blasts is necessary for complete eradication of the disease. To determine whether EGFL7 has a role in LCS, the LSC-enriched population was first determined within each AML patient sample using long-term colony initiating cell (LTC-IC) assays. […] Next, to determine whether EGFL7 has a role in LSC function, CD34+ cells were isolated and stimulated them with rEGFL7 protein and performed LTC-IC assays. […] To determine whether EGFL7 regulates LSC functions such as cellular quiescence, membrane-labeling retention experiments were performed with cell-trace violet dye (CTV). […]
molecule,measurement,setting,value
"Parsatuzumab: Anti-human EGFL7 therapeutic antibody (Parsatuzumab) obtained from Creative Biolabs; blocking monoclonal antibody (antibody, chains of the INN, looked up, V domains shown) VH: EVQLVESGGGLVQPGGSLRLSCAASGYTFIDYYMNWVRQAPGKGLEWVGDINLDNSGTHYNQKFKGRFTISRDKSKNTAYLQMNSLRAEDTAVYYCAREGVYHDYDDYAMDYWGQGTLVTVSS VL: DIQMTQSPSSLSASVGDRVTITCRTSQSLVHINAITYLHWYQQKPGKAPKLLIYRVSNRFSGVPSRFSGSGSGTDFTLTISSLQPEDFATYYCGQSTHVPLTFGQGTKVEIK",apoptosis (AnnexinV/7AAD),[1],increased apoptosis
same,expression of HES1,"[2]; 100 μg/ml, 2 and 10 hrs post treatment, vs IgG",concomitant increases
same,HES-1 mRNA expression,"[2]; 4 and 24 hours after addition, vs IGg1 controls",significant increases in HES-1 expression
same,number of quiescent cells (CTV^MAX),[3],decrease in the number of quiescent AML cells
